From patent US20230212587A1, “Mutant Hydroxyphenylpyruvate Dioxygenase Polypeptide, Encoding Gene Thereof and Use Therefor” (Beijing Dabeinong Biotechnology Co., Ltd., priority 2019, published 2023) come the findings set out here.

This test deals with Arabidopsis thaliana T1 plants. As to the kind of experiment: Topramezone tolerance of transgenic Arabidopsis thaliana T1 plants (pesticide damage grade by bleached leaf area, score, resistance evaluation). To be noted: HPPDs from ecotypes of Triticum aestivum; for Classification and statistics of pesticide damage grade: Grade 0 / Classification and statistics of pesticide damage grade: Grade 1 / Classification and statistics of pesticide damage grade: Grade 2 / Classification and statistics of pesticide damage grade: Grade 3: number of plants. The format is in vivo. Summed up:
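Eighteen days after sowing, wild-type and HPPD-transgenic T1 Arabidopsis receive a topramezone spray at 1×, 2× or 4× field rate (25–100 g ai/ha) or water. Seven days later each plant is graded by its proportion of bleached leaf area.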

B1: TaHPPD4m-F372A-02: Triticum aestivum ecotype 4 HPPD mutant F372A, SEQ ID NO: 198 (protein)
chain: MPPTPTTPAATGAAAVTPEHARPRRMVRFNPRSDRFHTLAFHHVEFWCADAASAAGRFAFALGAPLAARSDLSTGNSVHASQLLRSGNLAFLFTAPYANGCDAATASLPSFSADAARQFSADHGLAVRSIALRVADAAEAFRASVDGGARPAFSPVDLGRGFGFAEVELYGDVVLRFVSHPDGRDVPFLPGFEGVSNPDAVDYGLTRFDHVVGNVPELAPAAAYVAGFTGFHEFAEFTTEDVGTAESGLNSMVLANNSEGVLLPLNEPVHGTKRRSQIQTFLEHHGGSGVQHIAVASSDVLRTLREMRARSAMGGFDFLPPPLPKYYEGVRRIAGDVLSEAQIKECQELGVLVDRDDQGVLLQIATKPVGDRPTLFLEMIQRIGCMEKDERGEEYQKGGCGGFGKGNFSELFKSIEDYEKSLEAKQSAAVQGS
modifications: TaHPPD4m-F372A Amino Acid Sequence
B1: under “topramezone 25 g ai/ha (1x)”, the Resistance evaluation entry was “highly resistant (highly resistant plants (scores 0-15))”; the Scores came to 0; the “Classification and statistics of pesticide damage grade: Grade 0” value (“Classification and statistics … Grade 0” for short) came out at 16; the “Classification and statistics of pesticide damage grade: Grade 1” value (“Classification and statistics … Grade 1” below) is on record as 0. In addition, under “topramezone 25 g ai/ha (1x)”, the “Classification and statistics of pesticide damage grade: Grade 2” value (shortened to “Classification and statistics … Grade 2”) is 0; the “Classification and statistics of pesticide damage grade: Grade 3” value (“Classification and statistics … Grade 3” for short) amounted to 0. For the same molecule, for the setting “topramezone 100 g ai/ha (4x)”, the Resistance evaluation entry is listed as “highly resistant (highly resistant plants (scores 0-15))”; the Scores is recorded as 10; the “Classification and statistics … Grade 0” value stood at 11; the “Classification and statistics … Grade 1” value amounted to 5. Where the note is “topramezone 100 g ai/ha (4x)”, the “Classification and statistics … Grade 2” value turned out to be 0; the “Classification and statistics … Grade 3” value amounted to 0.

B2: TaHPPD5-02: native HPPD of Triticum aestivum ecotype 5, UniProt A0A3B6NNK0, SEQ ID NO: 201 (protein, listed as Triticum aestivum)
chain: MPPTPTTPAATGAAAVTPEHARPRRMVRFNPRSDRFHTLAFHHVEFWCADAASAAGRFAFALGAPLAARSDLSTGNSVHASQLLRSGNLAFLFTAPYANGCDAATASLPSFSADAARQFSADHGLAVRSIALRVADAAEAFRASVDGGARPAFSPVDLGRGFGFAEVELYGDVVLRFVSHPDGRDVPFLPGFEGVSNPDAVDYGLTRFDHVVGNVPELAPAAAYVAGFTGFHEFAEFTTEDVGTAESGLNSMVLANNSEGVLLPLNEPVHGTKRRSQIQTFLEHHGGSGVQHIAVASSDVLRTLREMRARSAMGGFDFLPPPLPKYYEGVRRIAGDVLSEAQIKECQELGVLVDRDDQGVLLQIFTKPVGDRPTLFLEMIQRIGCMEKDELFKSIEDYEKSLEAKQSAAVQGS
modifications: TaHPPD5 Amino Acid Sequence
Consider B2, for which, for the setting “topramezone 25 g ai/ha (1x)”, the Resistance evaluation entry is listed as “non-resistant (non-resistant plants (scores 68-100))”; the Scores is 83; the “Classification and statistics … Grade 0” value turned out to be 0; the “Classification and statistics … Grade 1” value turned out to be 0. In addition, where the note is “topramezone 25 g ai/ha (1x)”, the “Classification and statistics … Grade 2” value stood at 8; the “Classification and statistics … Grade 3” value was 8. Besides, under “topramezone 100 g ai/ha (4x)”, the Resistance evaluation result was “non-resistant (non-resistant plants (scores 68-100))”; the Scores is listed as 96; the “Classification and statistics … Grade 0” value is given as 0; the “Classification and statistics … Grade 1” value was 0. Moreover, under “topramezone 100 g ai/ha (4x)”, the “Classification and statistics … Grade 2” value was 2; the “Classification and statistics … Grade 3” value amounted to 14.
